Columns and labels:
[1] = molecular target: Neuronal calcium sensor-1 (NCS-1), recombinant, myristoylated, reduced monomer (UniProt P62166); experiment: SEC; analytical gel filtration on Superdex 75 10/300 GL, 20 mM Tris-HCl pH 8.0, 150 mM NaCl, 1 mM DTT (non-oxidizing), with 0.1 mM ZnCl2 or 1 mM EGTA
[2] = molecular target: Neuronal calcium sensor-1 (NCS-1), recombinant, myristoylated, reduced monomer (UniProt P62166); experiment: SDS-PAGE under non-reducing conditions (disulfide dimer); preparation of dNCS-1: NCS-1 2 mg/mL dialysed against 20 mM Tris-HCl pH 8.0, 150 mM NaCl, 1 mM H2O2, 4 °C, 3 h
[3] = molecular target: Neuronal calcium sensor-1 (NCS-1), recombinant, myristoylated, reduced monomer (UniProt P62166); experiment: redox equilibrium with GSSG/GSH, SDS-PAGE under non-reducing conditions; 1.5 µM dNCS-1, 50 mM HEPES pH 7.4, 100 mM KCl, 0.1 mM CaCl2 or 1 mM MgCl2, 0.1 mM GSSG and 8.8 µM–72.4 mM GSH, anaerobic, 35 °C, 62 h; densitometry
[4] = molecular target: Neuronal calcium sensor-1 (NCS-1), recombinant, myristoylated, reduced monomer (UniProt P62166); experiment: SDS-PAGE under non-reducing conditions (disulfide dimer); 20 μM reduced NCS-1 with 0.1–1000 μM H2O2, 20 mM Tris-HCl pH 8.0, 150 mM NaCl, with 1 mM MgCl2, 1 mM CaCl2, 0.1 mM ZnCl2 or their combinations (1% SDS in controls), 37 °C, 30 min; densitometry
[5] = molecular target: Chimera GRK1^N-C, fusion protein containing regulatory domains of GRK1 (GRK1 1-191,512-557) (UniProt P28327); experiment: SPR; GRK1^N-C immobilised by amine coupling on a ProteOn GLH chip (up to 12,000 RU); analyte NCS-1 or dNCS-1 0.5 to 20 μM; 25 °C; 10 mM HEPES pH 7.4, 150 mM NaCl, 1 mM CaCl2, 0.05% Tween 20; global fits by the heterogeneous ligand model (both) or the bivalent analyte model (dNCS-1)
[6] = molecular target: NCS-1 in HEK293 cells transfected with NCS-1-pCI-neo (UniProt P62166); experiment: Western blotting of cell lysates under non-reducing conditions (disulfide dimer); HEK293 cells transfected with NCS-1, 10 mM H2O2 for 30 min or longer, with or without Ca2+/ionomycin, EGTA, or Zn2+ with chloroquine; lysis with 10 mM iodoacetamide; dimer fraction by densitometry

Chain of UniProt P28327 (P28327 other isoform, or with tags, fused parts or gaps mutant): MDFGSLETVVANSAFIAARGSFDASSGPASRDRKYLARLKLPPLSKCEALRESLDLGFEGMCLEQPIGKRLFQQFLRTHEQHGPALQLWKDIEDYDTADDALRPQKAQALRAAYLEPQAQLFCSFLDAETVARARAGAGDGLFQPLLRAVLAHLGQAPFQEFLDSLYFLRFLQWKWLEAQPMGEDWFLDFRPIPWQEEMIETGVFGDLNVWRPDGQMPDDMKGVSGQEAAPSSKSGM

Row | stoichiometry N [1] | dNCS-1 in the dialysis mixture (1 mM H2O2) [2] | dNCS-1 of total NCS-1 (Ca2+, Eh GSSG/GSH ~ −220 mV) [3] | dimer content (Zn2+-bound NCS-1, H2O2) [4] | dimer fraction of total protein (the forms of Figure 4B, H2O2) [4] | stoichiometry N [4] | KD 1 (heterogeneous ligand model) [5] | KD 2 (heterogeneous ligand model) [5] | koff 1 (heterogeneous ligand model) [5] | koff 2 (heterogeneous ligand model) [5] | kon 1 (heterogeneous ligand model) [5] | kon 2 (heterogeneous ligand model) [5] | dimer content (prolonged incubation with Zn2+/H2O2) [6] | fraction of dNCS-1 of total protein (H2O2 after Zn2+ with chloroquine) [6] | fraction of the dimer of total NCS-1 (10 mM H2O2, 30 min) [6] | stoichiometry N [6] | Substance
1 | 2 | 80% | 5 to 10% | 75% | < 30% | 2 | 0.59 µM | 2.7 µM | 0.00016 s⁻¹ | 0.0044 s⁻¹ | 267 M⁻¹ s⁻¹ | 1910 M⁻¹ s⁻¹ | – | – | – | – | Neuronal calcium sensor-1 (NCS-1), recombinant, myristoylated, reduced monomer (from UniProt P62166 1-190) (natural protein)
2 | – | – | – | – | – | – | – | – | – | – | – | – | 25 to 30% | 9% | 4 to 5% | 2 | NCS-1 in HEK293 cells transfected with NCS-1-pCI-neo (from UniProt P62166 1-190) (natural protein)

From paper PMC8623652
